The source of these data is the domain aggregation screens of Martell et al. (2025).
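Also: 20 min heating vs room temperature control held 20 min.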

This data set is described as follows: soluble fraction after stress (log2 fold change); higher = more stays soluble; pooled small domains, quantitative proteomics. Particulars: stress: 75 degC.
As for “HMGAKEHLAGETLRMAVELLSEKQGIPAEQALIRFISSPVYDALYDLDTGMWTQGPTRLLEAFEALE”, the “soluble fraction (log2)” value was -2.01.

With “HMGALARLLASVEQELGVTRDRMTRTQKQEAVTLLNEWGAFTLRKSVEDVAEALGVSRFTVYNYLERAEA”, the “soluble fraction (log2)” value was -2.99.

Take “HMGALSLDMLFDRFDALQEQSMGDKTEGGQELRGMIRTFIEQEKLDIRVTRTTTNAALLEMIEKEMQG”: the “soluble fraction (log2)” value is -0.717.

As to “HMGASALTEREREVLRLLEGGGSDKRIARQLAISEHGVRYHLKSIYKKLGVHDRVSAIAAGRRLAS”, the “soluble fraction (log2)” value is -1.37.

In the case of “HMGASTQLVEIKNAYENGEWQNVIDLAGKLHEKYNGSEEDKEAQEMAKNSQSKLDEAAAAKAAEEA”, the “soluble fraction (log2)” value came to 0.0816.

With “HMGASYSQFLDQVDSGNVQKVAFGGDMRGGTSQLTYTTRGGQSSTITAPFDRDLINVLRTKNVEIVQEEP”, the “soluble fraction (log2)” value came out at 0.236.

For “HMGATFITSSKDNAINIRQAAGTDSKVIETIKNGHILESSEKSGEWYKVTYYDSDIKKTFTGYIHNSQLK”, the “soluble fraction (log2)” value came out at 0.376.

Regarding “HMGAVQFAEQKIHIGSRWIGKKISEFSAESDAFVILIKRGSEVVIPRGPTDIVENDVLVIHVPD”, the “soluble fraction (log2)” value was -3.05.

For “HMGAVVSPMPGVILDIKVKEGDSVSEGQTVIILEAMKMENEIVSEFTGTVSAIRVKKGDTVDTDAVLVEI”, the “soluble fraction (log2)” value is -1.76.

With “HMGAYPENSLLKERGQSAVYLIQENRKRLFFNAEAFLINGYNWKDIQVVDDLSKILTGKVIYAK”, the “soluble fraction (log2)” value was -2.83.

For the sequence “HMGDAATVFRDHYNINSAAQAQAALDRKEALWEQPNPWRDSDNREVFDWAAQTVKDRFDSGKYKPK”, the “soluble fraction (log2)” value was 0.626.

With “HMGDDVRKNILDVLSKFERVDITDLDSLELVRFYLEIEDIFDIEIKENDFYRLKSVDSIVDYIRNKSFF”, the “soluble fraction (log2)” value was -1.31.

Regarding “HMGDIQFMEYRINHSSGWIGKNISDFAAVSKNLVILIKRGQDVVIPRGPTAIMEDDVLVLHA”, the “soluble fraction (log2)” value is -1.88.

Regarding “HMGDITALMPGKVIQIIVKEGQEIKVGDPLIVIESMKMENTISSEVNGTIKSINIQIDDNVQFDQVLFTV”, the “soluble fraction (log2)” value was -2.54.

Consider “HMGDITIPDLQGMSFDQAREKLKALGLSIGKISYTSDTSKDDGVVISQGLQAGGKASKGATVDITINET”, for which the “soluble fraction (log2)” value worked out at 0.332.

On to “HMGDLEEAVKDFSEAIRLNDSWAEAYANRAVVYAEQGDAAQSDQDAEKARLLGVDQNRLNEMLNAVNS”, for which the “soluble fraction (log2)” value stood at 0.294.

Consider “HMGDLKALMPGKVTQVLVSGGQKVKVGEPVLLMESMKMEQTIVATKDGDISEILVSEGDTVEVGKIMIKI”, for which the “soluble fraction (log2)” value was -0.00398.

Take “HMGDLTVPDLSGLTVDQAKQRLKDMGLVLGKITTQEDSSKPDGVIISQSPSADGKINKGQLVDVVVNKLS”: the “soluble fraction (log2)” value came out at 0.034.

Consider “HMGDTHKVPGVKGVNVEQAMDMLSRLDLKAVVIDSVYVKDKKLGTVIEQNPVEGSVVKPGRPIYLVVNSRS”, for which the “soluble fraction (log2)” value worked out at 0.352.

For the sequence “HMGDTISVPAVRTLAYNKAMDILNAEGLKGIVADSVYDNHTAPGTVIEQNPKAGTIVKEGREVFLTIHA”, the “soluble fraction (log2)” value was determined as 0.117.

“HMGDWITGTVTRIADNGWGTFQPENAHNTVSIPPKMVADNQLKEADSIKIIAEPSPDGTKTFIKAISRE”: the “soluble fraction (log2)” value was 0.113.

Consider “HMGEDSEPVQVPDVTGQPLWEARRTLSSMGLKVLDDGGSGSVTAQMPSAGATLRNGGQMMLYTYDEALPE”, for which the “soluble fraction (log2)” value was 0.126.

Consider “HMGEEIRTWTDAQGRKIEARMSMLDGDQVLLELKDGRKIPYPLAKLSADDAHYARHFASASASD”, for which the “soluble fraction (log2)” value was -0.0336.

With “HMGEFVQLKNRTGSVIEAKILNYQNGKVKLQRKDGVIFVVPISIFDRMSSSIIENKAKEMDSF”, the “soluble fraction (log2)” value was -0.263.

As to “HMGEIHAQIPGLVSHLFVKEGNTVQVEQKLFILEAMKMENEIDSPIQGTVKRIHIATGSKVEKGDLIMEIS”, the “soluble fraction (log2)” value was -1.47.

As to “HMGEKFTFGQIAKAKAYAKTYANDMTSAVKNIEAIATGLSKHPEVADTLKKANENQELNRITKLAG”, the “soluble fraction (log2)” value was -0.0289.

As to “HMGEKPTEITLSNAISVQELAEKLYVSETDIIRTLFLDGIIVNINQVLDLETAVKVGDQLGVTITIVE”, the “soluble fraction (log2)” value was -1.33.

In the case of “HMGEKTVPNVIGQKLATAKQLLEKEGLTVGSTSYNKNQADKDTVLSTDPAPGSHLSEGAKVNLTLSSGA”, the “soluble fraction (log2)” value was 0.0786.

On to “HMGEKVIAVSGGFDPIHVGHLRMMQDAAQHGRLVVIVNSDEWLLKKKGYVFMPWEERAELIGAYDFVDE”, for which the “soluble fraction (log2)” value was -0.964.

Regarding “HMGELDPKIIAQINTFLQGITKLIEHPGNKDAKKTALGALHKLTFDQNITANFGKQLGQLDQVIQSSEET”, the “soluble fraction (log2)” value is 0.0337.

Consider “HMGELGPGSRGQAVRALQERLMALGFPLARFGADGIFGRETTGALRAFQHVAGLSPTGLGDHETLKWLGII”, for which the “soluble fraction (log2)” value is -1.33.

On to “HMGELTNALATLSERERDVARLVAQGLDNRQIAAQLFLSEGTVRNRISDILDKLALTNRTQLAIAWLHAE”, for which the “soluble fraction (log2)” value was -1.4.

As to “HMGEPTLTIRVVSYNPQSGEMVVVARDPLSGRYALATLNVRTGAGQMIGPQGELLPIENFALGS”, the “soluble fraction (log2)” value was -1.65.

As for “HMGEQVAVPDVTKKSVREVNNILTSAGLRLQIEGSGISVRQDPPADTMVAPDTVVTVSFEPP”, the “soluble fraction (log2)” value was found to be 0.118.

Consider “HMGEQVFSRKDLAINGNDLKAVFGWPPGPKYREALDQLFHWVLEDPARNRRETLLAYLHSLYD”, for which the “soluble fraction (log2)” value is -0.136.

On to “HMGESEKTLELVSQKDALVDEAFFFVRFQALLESNKTKGAQDLLDQSNHLSAAKLLQANAYLDIV”, for which the “soluble fraction (log2)” value was determined as 0.44.

As for “HMGESFEELAREISDDTGSKTEGGETGLFPRGVMAPQFEEAAFLLKVGDISEPIRTKFGYHIIKLKEIKP”, the “soluble fraction (log2)” value was -0.0117.

“HMGESVVVPDLRGKTLEEARAILKKVDLDYEINDSTYSKTAVPGTIRDIVPAPGSHVKAGRILFVSING”: the “soluble fraction (log2)” value is -0.553.

With “HMGETISVPAVRSLAYDRAVDMLTAEGLKGIVADSVYDNRTQPGTVIEQNPKAGTIVKEGREVYLTINA”, the “soluble fraction (log2)” value came out at 0.275.

Consider “HMGFAPEAAREEVAQLIGQRGRAVTVLRPSGQVEIAGRRFEATVEVGAVDAGDTIVVRGQTAFALLVEKAD”, for which the “soluble fraction (log2)” value was -0.292.

On to “HMGFKLQRYTTFVVERLKKYQDTPAAQMHDLLKEHYPDFPAVSPKTVYNYVMKIRQEHGLPAV”, for which the “soluble fraction (log2)” value was -4.26.

With “HMGFSERLAQAMSHAGYTQGGLAKAVGMAQSSVNKLLNNANSSRKTVEIASVLGVRPEWLSTGEGDML”, the “soluble fraction (log2)” value is -0.092.

With “HMGFSKGKRDLIRMIKLAIRELADDNGRAQIEDVITRLVQEGHSRDEIRLQIDMFLRQGEAMEPKQGIIKL”, the “soluble fraction (log2)” value is -1.08.

“HMGFSLEQFGTDPDLKKIVENAFERIITASEGRIFKSDFSSNNSALPLEIFSFLIAVILLKLSGMN”: the “soluble fraction (log2)” value is -0.157.

On to “HMGFVATRSRKFLPFSEARAITRGLGFSNQKDYKEWIKGNGNELLLPFNPWRTYGDSGWKGWKDFLGTDKA”, for which the “soluble fraction (log2)” value was -1.39.

On to “HMGFYDLFINLADKVGSLADVTQILAEARINLVNVHILEIREEIDGIAQLTFSSEKDRQKALELLKTKYK”, for which the “soluble fraction (log2)” value was -1.87.

For “HMGGDFVEHLKDLASEAPVIRLVNTIIGRVIDLRASDIHLEPFDDGLHVRYRVDGVIHPGELVPPRLS”, the “soluble fraction (log2)” value was 0.0444.

As to “HMGGEGQIEIREREGIPAEAWVDGVMRGQTPLRVEHVSIGTRRVELRAEGRPPVAADVLVRPTVTALVELS”, the “soluble fraction (log2)” value is 0.263.

In the case of “HMGGEHPIPEDWAVNEANYEHGAKFYGYTRAHVDAEAQAFRDQYAANGKKYVDWDAHFRTFMRWQNERRYG”, the “soluble fraction (log2)” value is -0.0635.

Take “HMGGEPVSARVPDTLHGARLDATAAALFPDFSRSRLAEWIKAGRLRRNDQPAKPRDKVAVDDHLLLIPEY”: the “soluble fraction (log2)” value came out at 0.0937.

For “HMGGFSVTAEAFDGTPEVGKTVGFTAGSTKIKVEDTKGDATFGTILEKETVGFGEGKYTYFYIGL”, the “soluble fraction (log2)” value is -0.428.

For the sequence “HMGGKAITGGEGEIIIRADKAETVAIYGIDGRLVHRVSTEAGDTKRVSVPAGIYIVKGAKVVV”, the “soluble fraction (log2)” value was determined as 0.179.

Take “HMGGKTAVVTGSLVNVRKGPGTGNALVGQVARGDELPVLGQDGDWYQIKLANGSNGWVAGWLVSLKDAVP”: the “soluble fraction (log2)” value was 0.334.

Turning to “HMGGLIDQSIQEIIDKYSVPGKKIQKAQRLKIVAEMHTKGIFKMRGGVQQAAQALGVTRYTVYNDLEVMN”, the “soluble fraction (log2)” value was -3.08.

In the case of “HMGGLLSVIQKKAINNVKDRYSENAIKSMTKVQLHDLIKAETSRLLDPANAKETPEYQAFLEE”, the “soluble fraction (log2)” value is -0.0634.

For the sequence “HMGGLSAEQKNGIQSVLKNFDPKNLTSADAKSITSEFKKLGVQPGKDLETTMAASGFDAKEVGRLAF”, the “soluble fraction (log2)” value was found to be 0.106.

As for “HMGGPRDVPYSTFLIEVEKGQVAEVTIQDHKITGTYKNSNEPFITNAPDDPDLVSRLIKYGVGVQAKPPE”, the “soluble fraction (log2)” value stood at 0.0896.

As to “HMGGREEAGTDIARLLGYINDIHGEELIAKLEYYQKMLGSENFAVLMSRLPDGQKKELREQNLYSEYV”, the “soluble fraction (log2)” value is -0.152.

As to “HMGGRRHANMSREEEAAFLAPFFEKAAQGGILVVREIRQALDAHLGRTVPLSTVYNLLHRHNWRKL”, the “soluble fraction (log2)” value is -3.39.

Take “HMGGRTITVGISENMTVKDIAQMLEEKGLIEDARLFVVQELLSAYHKEIKPGIYDLSTDMTAAQMLEIMS”: the “soluble fraction (log2)” value was -0.443.

Turning to “HMGGSIDITTAPPGAKIYLDADYYGKTPKRLENISAGTYRLHLLHPEKGEVYRSVTLNEKNGTLKIDENLN”, the “soluble fraction (log2)” value is 0.0541.

Regarding “HMGGTATDYYNQGRTAYDVGDYNGALMNFQEAVRLDPRYGEAYYGLGKAYEALNMQNQALDAYLSAI”, the “soluble fraction (log2)” value is -0.529.

“HMGGVSTDKPLNWDADGTSKLTQEQIDYLRSTYDLSDMSKQDYYDLMADLTNMNAISIKDVISQYVK”: the “soluble fraction (log2)” value was -0.0294.

As for “HMGGYVVVGDKDGFWSVVSTPVSKAKAEELLKDTTFPKGEKGKIVSVAEAMSHKKVIGKEYLESGGT”, the “soluble fraction (log2)” value was found to be 0.0752.

As for “HMGHASPGNREALQFALERHQARAAEFAEKAGLSIANASTKFKQLWEQGFLMRNESVADSGGVEFLYQR”, the “soluble fraction (log2)” value was -0.113.

Consider “HMGHEISLNNSRFLKLLNKTKISISNDDTRHYLNGIFLHLTEAHGRQFLTGVATDSHRLSSSSLEID”, for which the “soluble fraction (log2)” value is -0.206.

Turning to “HMGHRQRRARARNRSMLEDIPGLGPKRRQQLLRQFGGLPQLMRAGVAELSQVPGISDSLARKIHAELHPES”, the “soluble fraction (log2)” value is -2.73.

“HMGHYGQMTRDLIEKAKTYEEGEEKAALVLTIANLMKRHYLTWNRATVENTLIAEQLKEMSEGALTLPEDV”: the “soluble fraction (log2)” value was -0.956.

For “HMGIAEGSSVFVRVLAAEDGGRYTVSFAGRRFSVLSRQALGIGSAFRADVKVEKGQVLLVPR”, the “soluble fraction (log2)” value is -2.95.
